For experiment [1], the target named is cynomolgus monkey IgE (in cynomolgus serum, Harlan Sera-Lab Ltd) (cynomolgus monkey). In words: capture ELISA, Test 1, Cyno 1. For orientation: ELISA stands for enzyme-linked immunosorbent assay.
The target is the same in experiment [2]. In words: capture ELISA, Test 1, Cyno 2.
Experiment [3] shares this target. Nature of the experiment: capture ELISA, Test 1, Cyno 3.
For experiment [4] the target is unchanged. In words: capture ELISA, Test 1, Cyno 5.
Experiment [5] shares this target. In words: capture ELISA, Test 1, Cyno 7.
Experiment [6] has the same target. In words: capture ELISA, Test 2, Cyno 1.
Experiment [7] shares this target. Nature of the experiment: capture ELISA, Test 2, Cyno 2.
The target is the same in experiment [8]. In words: capture ELISA, Test 2, Cyno 3.
Experiment [9] shares this target. In words: capture ELISA, Test 2, Cyno 5.
For experiment [10] the target is unchanged. In words: capture ELISA, Test 2, Cyno 7.

In the case of E25 (antibody), the IgE concentration detected was determined as 172 ng/mL in [1]; 52 ng/mL in experiment [2]; 166 ng/mL in [3]; 232 ng/mL in experiment [4]; 0 ng/mL in experiment [5]; 146 ng/mL in experiment [6]. Moreover, the IgE concentration detected in experiment [7] is 104 ng/mL; in experiment [8], 135 ng/mL; in [9] it was 252 ng/mL; in experiment [10] it was 0 ng/mL.
